Assay results taken from paper PMC4398645.

Target: T1, His6-Arc (Activity-regulated cytoskeleton-associated protein, full length) (mouse), Q9WV31
T1 chain: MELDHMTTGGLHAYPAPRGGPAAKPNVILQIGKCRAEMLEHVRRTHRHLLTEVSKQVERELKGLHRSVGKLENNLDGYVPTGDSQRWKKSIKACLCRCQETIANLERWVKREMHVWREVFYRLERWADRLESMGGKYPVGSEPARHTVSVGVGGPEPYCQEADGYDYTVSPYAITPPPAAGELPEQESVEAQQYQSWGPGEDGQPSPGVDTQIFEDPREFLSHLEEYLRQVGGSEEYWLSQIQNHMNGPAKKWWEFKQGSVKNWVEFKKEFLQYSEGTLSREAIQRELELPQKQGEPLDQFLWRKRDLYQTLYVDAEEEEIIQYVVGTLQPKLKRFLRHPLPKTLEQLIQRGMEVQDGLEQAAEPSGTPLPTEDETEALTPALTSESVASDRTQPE
Experiment: SEC + other: sucrose density gradient centrifugation
Conditions: remark: other sources report otherwise

B1: His6-Arc (Activity-regulated cytoskeleton-associated protein, full length), Q9WV31 1-396 (natural protein)
chain: T1 chain
stoichiometry N: 2
